Results as given in patent US20240209076A1 (KODIAK SCIENCES, published 2024).

Columns and labels:
recombinant human IL-6 = recombinant human IL-6 (human, UniProt P05231 30-212); test: SPR, IL-6 on CM5 chip, Fab lysate, 25 C
Experimental: Three ranges of antigen density (100-150 RU, 300-400 RU, 400-600 RU) were obtained by using variable flow times for each chip channel, later blocked with ethanolamine. Supernatants of the 96-well filtered culture lysates were injected at 50 μL/min for 120 seconds. Fitting of dissociation curves (300 seconds) to single exponential decay curve was used for the determination of dissociation rates (koff). Chip surfaces were regenerated with 10 mM Glycine pH 1.7 solution injected at 50 μL/min during 60 seconds after every cycle of sample binding and dissociation.

human IL-6 = human IL-6 (human, UniProt P05231 30-212); test: SPR (Biacore), supernatant antibody on Protein A chip, IL-6 flowed, 37 C
Chain of human IL-6 (P05231 30-212 limits assumed): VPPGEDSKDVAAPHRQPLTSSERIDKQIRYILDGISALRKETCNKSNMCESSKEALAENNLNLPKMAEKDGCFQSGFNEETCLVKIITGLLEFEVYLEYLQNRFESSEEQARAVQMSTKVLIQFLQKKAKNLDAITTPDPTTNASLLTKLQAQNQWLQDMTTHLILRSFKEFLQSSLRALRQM

Chain of recombinant human IL-6 (P05231 30-212 limits assumed): as above

Binder	koff (recombinant human IL-6) [s⁻¹]	Kd (human IL-6) [nM]	koff (human IL-6) [s⁻¹]	kon (human IL-6) [M⁻¹ s⁻¹]
anti-IL-6 Fab, parental molecule (Fab, V domains shown, Fab expressed in E. coli TG1, tested as filtered lysate; also called wild-type; parent molecule) VH: EVQLVESGGGLVQPGGSLRLSCAASGFTFSPFAMSWVRQAPGKGLEWVAKISPGGSWTYYSDTVTGRFTFSLDTSKSTAYLQMNSLRAEDTAVYYCARQLWGYYALDIWGQGTLVTVSS VL: DIQLTQSPSSLSASVGDRVTITCSASISVSYMYWYQQKPGKAPKLLIYDMSNLASGVPSRFSGSGSGTDFTLTISSLQPEDFATYYCMQWSGYPYTFGQGTKVEIK	0.00494			
anti-IL-6 antibody, heavy chain T65V, G66D / light chain M32L, M50D, N52S, M88Q (antibody, human IgG1, V domains shown, Human IgG1) VH: EVQLVESGGGLVQPGGSLRLSCAASGFTFSPFAMSWVRQAPGKGLEWVAKISPGGSWTYYSDTVVDRFTFSLDTSKSTAYLQMNSLRAEDTAVYYCARQLWGYYALDIWGQGTLVTVSS VL: DIQLTQSPSSLSASVGDRVTITCSASISVSYLYWYQQKPGKAPKLLIYDDSSLASGVPSRFSGSGSGTDFTLTISSLQPEDFATYYCQQWSGYPYTFGQGTKVEIK		0.281	0.000551	1.96e+06
anti-IL-6 Fab, heavy chain A49T (Fab, V domains shown, see m39) VH: EVQLVESGGGLVQPGGSLRLSCAASGFTFSPFAMSWVRQAPGKGLEWVTKISPGGSWTYYSDTVTGRFTFSLDTSKSTAYLQMNSLRAEDTAVYYCARQLWGYYALDIWGQGTLVTVSS VL: DIQLTQSPSSLSASVGDRVTITCSASISVSYMYWYQQKPGKAPKLLIYDMSNLASGVPSRFSGSGSGTDFTLTISSLQPEDFATYYCMQWSGYPYTFGQGTKVEIK	0.00575			
anti-IL-6 antibody, heavy chain T65K, G66D / light chain M32L, M50D, N52S, M88Q (antibody, human IgG1, V domains shown, Human IgG1) VH: EVQLVESGGGLVQPGGSLRLSCAASGFTFSPFAMSWVRQAPGKGLEWVAKISPGGSWTYYSDTVKDRFTFSLDTSKSTAYLQMNSLRAEDTAVYYCARQLWGYYALDIWGQGTLVTVSS VL: DIQLTQSPSSLSASVGDRVTITCSASISVSYLYWYQQKPGKAPKLLIYDDSSLASGVPSRFSGSGSGTDFTLTISSLQPEDFATYYCQQWSGYPYTFGQGTKVEIK		0.356	0.000579	1.63e+06
anti-IL-6 Fab, heavy chain D62Q (Fab, V domains shown, see m39) VH: EVQLVESGGGLVQPGGSLRLSCAASGFTFSPFAMSWVRQAPGKGLEWVAKISPGGSWTYYSQTVTGRFTFSLDTSKSTAYLQMNSLRAEDTAVYYCARQLWGYYALDIWGQGTLVTVSS VL: DIQLTQSPSSLSASVGDRVTITCSASISVSYMYWYQQKPGKAPKLLIYDMSNLASGVPSRFSGSGSGTDFTLTISSLQPEDFATYYCMQWSGYPYTFGQGTKVEIK	0.00434			
anti-IL-6 antibody, heavy chain T65W, G66D / light chain M32L, M50D, N52S, M88Q (antibody, human IgG1, V domains shown, Human IgG1) VH: EVQLVESGGGLVQPGGSLRLSCAASGFTFSPFAMSWVRQAPGKGLEWVAKISPGGSWTYYSDTVWDRFTFSLDTSKSTAYLQMNSLRAEDTAVYYCARQLWGYYALDIWGQGTLVTVSS VL: DIQLTQSPSSLSASVGDRVTITCSASISVSYLYWYQQKPGKAPKLLIYDDSSLASGVPSRFSGSGSGTDFTLTISSLQPEDFATYYCQQWSGYPYTFGQGTKVEIK		0.322	0.000384	1.19e+06
anti-IL-6 Fab, heavy chain F27G (Fab, V domains shown, see m39) VH: EVQLVESGGGLVQPGGSLRLSCAASGGTFSPFAMSWVRQAPGKGLEWVAKISPGGSWTYYSDTVTGRFTFSLDTSKSTAYLQMNSLRAEDTAVYYCARQLWGYYALDIWGQGTLVTVSS VL: DIQLTQSPSSLSASVGDRVTITCSASISVSYMYWYQQKPGKAPKLLIYDMSNLASGVPSRFSGSGSGTDFTLTISSLQPEDFATYYCMQWSGYPYTFGQGTKVEIK	0.00401			
anti-IL-6 antibody, heavy chain T65S, G66D / light chain M32L, M50D, N52S, M88Q (antibody, human IgG1, V domains shown, Human IgG1) VH: EVQLVESGGGLVQPGGSLRLSCAASGFTFSPFAMSWVRQAPGKGLEWVAKISPGGSWTYYSDTVSDRFTFSLDTSKSTAYLQMNSLRAEDTAVYYCARQLWGYYALDIWGQGTLVTVSS VL: DIQLTQSPSSLSASVGDRVTITCSASISVSYLYWYQQKPGKAPKLLIYDDSSLASGVPSRFSGSGSGTDFTLTISSLQPEDFATYYCQQWSGYPYTFGQGTKVEIK		0.31	0.000441	1.42e+06
anti-IL-6 antibody, heavy chain T65Y, G66D / light chain M32L, M50D, N52S, M88Q (antibody, human IgG1, V domains shown, Human IgG1) VH: EVQLVESGGGLVQPGGSLRLSCAASGFTFSPFAMSWVRQAPGKGLEWVAKISPGGSWTYYSDTVYDRFTFSLDTSKSTAYLQMNSLRAEDTAVYYCARQLWGYYALDIWGQGTLVTVSS VL: DIQLTQSPSSLSASVGDRVTITCSASISVSYLYWYQQKPGKAPKLLIYDDSSLASGVPSRFSGSGSGTDFTLTISSLQPEDFATYYCQQWSGYPYTFGQGTKVEIK		0.237	0.000367	1.55e+06
anti-IL-6 antibody, heavy chain T65L, G66D / light chain M32L, M50D, N52S, M88Q (antibody, human IgG1, V domains shown, Human IgG1) VH: EVQLVESGGGLVQPGGSLRLSCAASGFTFSPFAMSWVRQAPGKGLEWVAKISPGGSWTYYSDTVLDRFTFSLDTSKSTAYLQMNSLRAEDTAVYYCARQLWGYYALDIWGQGTLVTVSS VL: DIQLTQSPSSLSASVGDRVTITCSASISVSYLYWYQQKPGKAPKLLIYDDSSLASGVPSRFSGSGSGTDFTLTISSLQPEDFATYYCQQWSGYPYTFGQGTKVEIK		0.293	0.000446	1.53e+06
anti-IL-6 antibody, heavy chain T65R, G66D / light chain M32L, M50D, N52S, M88Q (antibody, human IgG1, V domains shown, Human IgG1) VH: EVQLVESGGGLVQPGGSLRLSCAASGFTFSPFAMSWVRQAPGKGLEWVAKISPGGSWTYYSDTVRDRFTFSLDTSKSTAYLQMNSLRAEDTAVYYCARQLWGYYALDIWGQGTLVTVSS VL: DIQLTQSPSSLSASVGDRVTITCSASISVSYLYWYQQKPGKAPKLLIYDDSSLASGVPSRFSGSGSGTDFTLTISSLQPEDFATYYCQQWSGYPYTFGQGTKVEIK		0.327	0.000532	1.63e+06
anti-IL-6 antibody, heavy chain T65H, G66D / light chain M32L, M50D, N52S, M88Q (antibody, human IgG1, V domains shown, Human IgG1) VH: EVQLVESGGGLVQPGGSLRLSCAASGFTFSPFAMSWVRQAPGKGLEWVAKISPGGSWTYYSDTVHDRFTFSLDTSKSTAYLQMNSLRAEDTAVYYCARQLWGYYALDIWGQGTLVTVSS VL: DIQLTQSPSSLSASVGDRVTITCSASISVSYLYWYQQKPGKAPKLLIYDDSSLASGVPSRFSGSGSGTDFTLTISSLQPEDFATYYCQQWSGYPYTFGQGTKVEIK		0.297	0.000423	1.43e+06
anti-IL-6 antibody, heavy chain T65P, G66D / light chain M32L, M50D, N52S, M88Q (antibody, human IgG1, V domains shown, Human IgG1) VH: EVQLVESGGGLVQPGGSLRLSCAASGFTFSPFAMSWVRQAPGKGLEWVAKISPGGSWTYYSDTVPDRFTFSLDTSKSTAYLQMNSLRAEDTAVYYCARQLWGYYALDIWGQGTLVTVSS VL: DIQLTQSPSSLSASVGDRVTITCSASISVSYLYWYQQKPGKAPKLLIYDDSSLASGVPSRFSGSGSGTDFTLTISSLQPEDFATYYCQQWSGYPYTFGQGTKVEIK		0.601	0.00108	1.79e+06
anti-IL-6 antibody, heavy chain T65G, G66D / light chain M32L, M50D, N52S, M88Q (antibody, human IgG1, V domains shown, Human IgG1) VH: EVQLVESGGGLVQPGGSLRLSCAASGFTFSPFAMSWVRQAPGKGLEWVAKISPGGSWTYYSDTVGDRFTFSLDTSKSTAYLQMNSLRAEDTAVYYCARQLWGYYALDIWGQGTLVTVSS VL: DIQLTQSPSSLSASVGDRVTITCSASISVSYLYWYQQKPGKAPKLLIYDDSSLASGVPSRFSGSGSGTDFTLTISSLQPEDFATYYCQQWSGYPYTFGQGTKVEIK		0.311	0.000477	1.53e+06
anti-IL-6 Fab, heavy chain A49S (Fab, V domains shown, see m39) VH: EVQLVESGGGLVQPGGSLRLSCAASGFTFSPFAMSWVRQAPGKGLEWVSKISPGGSWTYYSDTVTGRFTFSLDTSKSTAYLQMNSLRAEDTAVYYCARQLWGYYALDIWGQGTLVTVSS VL: DIQLTQSPSSLSASVGDRVTITCSASISVSYMYWYQQKPGKAPKLLIYDMSNLASGVPSRFSGSGSGTDFTLTISSLQPEDFATYYCMQWSGYPYTFGQGTKVEIK	0.0054			
